The values below come from patent publication US20230357438A1 (BIOSION, published 2023).

Like-named read-outs stand apart in the source and are kept apart here.

Test [1] deals with T1, recombinant human C5-his protein (Sino Biological Inc., Cat#13416-H18H) (human, UniProt P01031 19-1676).
T1 construct: Bought protein; also called wild type human C5; not shown: his tag
As to the kind of experiment: capture ELISA: antibody captured on goat anti-human IgG Fc, biotin-labeled human C5-his 0.99 nM, streptavidin-HRP. A general note: ELISA stands for enzyme-linked immunosorbent assay.

In test [2] the target is T2, mutant human C5 (R885H)-his protein (Acro biosystems, Cat#CO5-H52Hx) (human, UniProt P01031 19-1676).
T2 construct: Bought protein; also called human C5 mutant; not shown: his tag
Kind of test: SPR (Biacore T200), antibody captured by anti-human IgG, C5 in flow, 1:1 fit.

Test [3] addresses T3, cynomolgus monkey C5-his protein (Acro biosystems, Cat#CO5-C52Hx) (cynomolgus monkey, UniProt A0A2K5U1T1 19-1676).
T3 construct: Bought protein; also called Cynomolgus C5-his; cynomolgus C5; not shown: his tag
As to the kind of experiment: indirect ELISA on coated cynomolgus C5-his (1 ug/ml), anti-human IgG Fc-HRP.

Test [4] concerns the target T2, mutant human C5 (R885H)-his protein …. As to the kind of experiment: indirect ELISA on coated human C5 (R885H)-his (2 ug/ml), anti-human IgG Fc-HRP.
Test [5] addresses T3, cynomolgus monkey C5-his protein (Acro …). Kind of test: SPR (Biacore T200), antibody captured by anti-human IgG, C5 in flow, 1:1 fit. For orientation: In SPR one partner is held on a chip, and binding of the other changes the refractive index at the surface.
In test [6] the target is T1, recombinant human C5-his protein (Sino …). The description is as above.
Test [7] shares this target. As to the kind of experiment: competitive ELISA: antibody pre-mixed with biotin-labeled human C5-his 0.99 nM, added to coated Eculizumab; partial inhibition only.
Test [8] has the same target. Kind of test: capture ELISA: antibody captured on goat anti-human IgG Fc, biotin-labeled human C5-his 0.99 nM, streptavidin-HRP. The source holds these as a separate data set.
In test [9] the target is T2, mutant human C5 (R885H)-his protein …. As to the kind of experiment: indirect ELISA on coated human C5 (R885H)-his (2 ug/ml), anti-human IgG Fc-HRP. This is another data set of the same source.
Test [10] has as its target T1, recombinant human C5-his protein (Sino …). As to the kind of experiment: competitive ELISA: antibody pre-mixed with biotin-labeled human C5-his 0.99 nM, added to coated Eculizumab; partial inhibition only, value below the range tested.
Test [11] concerns the target T3, cynomolgus monkey C5-his protein (Acro …). As to the kind of experiment: indirect ELISA on coated cynomolgus C5-his (1 ug/ml), anti-human IgG Fc-HRP. The source holds these as a separate data set.

B1: A5G9C2C7 (antibody, V domains shown)
VH: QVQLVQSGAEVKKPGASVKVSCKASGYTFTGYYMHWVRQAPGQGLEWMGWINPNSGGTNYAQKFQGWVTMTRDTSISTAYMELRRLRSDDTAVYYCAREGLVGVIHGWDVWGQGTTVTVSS
VL: DIQMTQSPSTLSASVGDRVTITCRASQNIYNWLAWYQQKPGKAPKLLIYKASSLESGVPSRFSGSGSGTEFTLTISSLQPDDFATYYCQQYNSNSRTFGQGTKVEIK
notes: Fully human antibody purified from hybridoma; not added here
On to B1, for which the EC50 amounted to 0.0277 nM in test [1], 0.128 nM in test [3] and 0.0853 nM in test [4]. Also, the dissociation constant Kd was 0.303 nM in [2], 1.58 nM in [5] and 0.262 nM in test [6]. The koff in [2] amounted to 0.000153 s⁻¹; in test [5], 0.000293 s⁻¹; in test [6], 3.47e-05 s⁻¹. In addition, the kon was determined as 505000 M⁻¹ s⁻¹ in test [2], 185000 M⁻¹ s⁻¹ in [5] and 133000 M⁻¹ s⁻¹ in [6]. In addition, the IC50 in [7] was ~0.256 nM.

B2: A2E12G12H7 (antibody, V domains shown)
VH: QVQLVQSGAEVKKPGASVKVSCKASGYTFTGYYIHWVRQAPGQGLEWMGWINPNSGSTNSAQKFQDWVTLTRDTSISTAYMELSRLKSDDTAVYYCARRADYYGSGNFYYFDYWGQGTLVTVSS
VL: DIQMTQSPSSVSASVGDRVTISCRASQSISRWLAWYQQKPGKAPKLLIYAATSLQSGVPSRFSGSGFVRDFTLTISSLQPEDFATYYCQQANTFPLIFGGGTKVEIK
notes: as for B1
Take B2: the EC50 in [8] was 0.0418 nM; in test [9], 0.0684 nM; in test [11], 0.127 nM. Also, the Kd in [2] worked out at 1.32 nM; in test [5], 0.741 nM; in [6], 1.6 nM. The koff is 0.000408 s⁻¹ in test [2], 0.000267 s⁻¹ in test [5] and 0.000186 s⁻¹ in test [6]. The association rate constant (kon) in test [2] is 308000 M⁻¹ s⁻¹; in [5] it was 360000 M⁻¹ s⁻¹; in [6], 117000 M⁻¹ s⁻¹. Further, in test [10], the IC50 is ~0.00153 nM.

Broadly, the EC50 is the concentration needed to bring the measured effect to its halfway point. A word on the Kd: it is the constant that tells how readily two partners part at equilibrium. A word on the koff: it is the first-order rate constant of dissociation. For orientation: kon means a measure of how fast the partners come together. Broadly, the IC50 is the concentration that gives 50% inhibition.
